Laboratory results as given in patent US20220249563A1 (LEGEND BIOTECH IRELAND, published 2022).

T1: extracellular domain of human DLL3 protein (aa27-466) having an N-terminal FLAG tag (AdipoGen, AG-40B-0151) (human, UniProt Q9NYJ7 27-466)
T1 construct: range 27-466; also called DLL3 ECD protein
T1 sequence (looked up): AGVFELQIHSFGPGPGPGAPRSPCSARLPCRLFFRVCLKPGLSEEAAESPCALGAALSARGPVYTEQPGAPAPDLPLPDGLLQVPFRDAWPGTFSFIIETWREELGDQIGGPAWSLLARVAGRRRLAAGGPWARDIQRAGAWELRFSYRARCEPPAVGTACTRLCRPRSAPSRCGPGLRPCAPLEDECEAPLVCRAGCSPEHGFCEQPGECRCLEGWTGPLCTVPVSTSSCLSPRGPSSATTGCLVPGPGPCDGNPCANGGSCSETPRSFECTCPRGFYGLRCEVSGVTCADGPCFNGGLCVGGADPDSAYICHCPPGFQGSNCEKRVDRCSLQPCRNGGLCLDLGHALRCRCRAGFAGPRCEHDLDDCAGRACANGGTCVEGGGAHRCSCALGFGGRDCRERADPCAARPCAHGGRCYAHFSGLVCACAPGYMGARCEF


target: T1, extracellular domain of human DLL3 …; assay: ELISA (protein), FACS (cells)

Row | binding result | Binder
1 | binds | AS64443 (VHH, camel sdAb; crude E. coli supernatant) VHH: QVHLVESGGGSVQAGGSLRLSCAASGYTDSSVYIGWFRQAPGKEREEVAIIYTGGESTHYRSSVKGRFTVSQDNAKNTLYLQMNSLKPEDTAMYYCAARFPAVTYWGQGTQVTVSS
2 | binds | AS64634 (VHH, camel sdAb; crude E. coli supernatant) VHH: QVRLVESGGGSVQAGGSLRLSCAASGYSFRGDFMCMGWFRQTPGKGREGVAVFYPGGGSTNYADSAKGRFTISQDNAKNTMYLQMNTLKPEDTAMYYCAARRWVSGTCYWDSDFHYWGQGTQVTVSS
3 | binds | AS75695 (VHH, camel sdAb; crude E. coli supernatant) VHH: QVRLVESGGGSVQAGGSLRLSCVASGYTVSAYCMGWFRQVLGKGRERIAFIDAGGATIYADPVKGRFTISKDNAKNTLYLQMNSLKPEDTAMYYCVADRRGRVRRCEYNAWGQGTQVTVSS
4 | binds | AS64142 (VHH, camel sdAb; crude E. coli supernatant) VHH: QVHLMESGGGLVQTGGSLRLSCTASGFTFDRNAMRWYRQAPGKEREGVSCIDWTGANIAYADSVKGRFTISRDNAKNTLYLQMNSLKPEDTGMYYCAADTTSGYCSGFWSTSRYSWGQGTQVTVSS
5 | binds | AS64057 (VHH, camel sdAb; crude E. coli supernatant) VHH: QVQLEESGGGLVQTGGSLRLSCTASGFTFDRNAMRWYRQAPGKEREGVSCISWTGANIAYADSVKGRFTISRDNAKNTLYLQMNSLKPEDTGMYYCAADTTSGSCSGFWSTSRYYWGQGTQVTVSS
6 | binds | AS75387 (VHH, camel sdAb; crude E. coli supernatant) VHH: QVHLVESGGGSVQAGGSLRLSCAASGYPYSSPCMAWFRQAPGKEREGVLVAYTGGDIQYLTDSVKGRFTISRDNAKNTVYLQMNSLKPEDTAMYYCAADLRLPRAGGCAYSYWGQGTQVTVSS
7 | binds | AS76169 (VHH, camel sdAb; crude E. coli supernatant) VHH: QVHLMESGGGSVQAGGSLRLSCAASGYIYSSFCMGWFRQAPGKEREVVAYIRDNIMTSYTDSVKGRFTISKDNAKRTLYLQMNGLKPEDTGMYYCAVDRGGYANSCAVAARYDYWGRGTQVTVSS
8 | binds | AS68280 (VHH, camel sdAb; crude E. coli supernatant) VHH: QVQLVESGGGSVHPGGSLRLSCAASGSTYSSNYLGWFRQAPGKGRDWVAAISTGDGATAYADSVKGRFTISQDNAKNTVYLQMNSLKLEDSAMYYCAAARGRFIDWTKATQYDYWGQGTQVTVSS
9 | binds | AS64395 (VHH, camel sdAb; crude E. coli supernatant) VHH: QVRLVESGGGSVQAGGSLRLSCAASGSTYSTNFMGWFRQAPGKEREGVATLVTWAERTAYADSVKGRFTISQDRAKNTVYLQMNGLKPEDTAMYYCAAAASTAVRLLDPGDFAYWGQGTQVTVSS
10 | binds | AS63937 (VHH, camel sdAb; crude E. coli supernatant) VHH: QVKLVESGGGSVQAGGSLRLSCAASGSTISSRPMAWFRQAPGKEREGVACIHTGLGRTYYADSVKGRFTISQDNAKNTVYLQVNSLKPEDTAMYYCAADSRRPCMVAAGYTYWGQGTQVTVSS
11 | binds | AS64597 (VHH, camel sdAb; crude E. coli supernatant) VHH: QVHLVESGGGSVQAGGSLRLSCAASGYTYRVNFMGWFRQTPGKEREGVATIDSGVGTTYYADSVKGRFTISHNNAKNTIYLQMNSLKPEDTAMYYCAAGGPPTDGDRWYPLRPPGYNYWGQGTQVTVSS
12 | binds | AS69527 (VHH, camel sdAb; crude E. coli supernatant) VHH: EVQLAESGGGSVQAGGSLRLSCVASRYTFSSTCMAWFRQAPGKEREEVAAIYTDDGSTWYADSVKGRFTISRDNAKNTVYLQMNSLKPEDTAMYYCAARRWACPRVGSWHEFAYWGQGTQVTVSS
13 | binds | AS63987 (VHH, camel sdAb; crude E. coli supernatant) VHH: QVRLVESGGGSVQAGGSLRLSCEATGYRNCMAWFRQAPGKEREGVAVIYTPSGITDYASSVKGRFTISQNNARNTQYLQMNSLKPEDTAMYYCAADRPFVCNIANMRRSSNWGRGTQVTVSS
14 | binds | AS64060 (VHH, camel sdAb; crude E. coli supernatant) VHH: QVKLVESGGGSVQAGGSLRLSCAASGSTYCTYRMSWFRQAPGKEREFVAVIDSGGSTSYADSVKGRFTISRDNAKNTVYLQMNSLKPEDTAMYYCKTDPTIGCPQTYRYNYWGQGTQVTVSS
15 | binds | AS63932 (VHH, camel sdAb; crude E. coli supernatant) VHH: QVQLEESGGGSVQAGGSLRLSCVASGYTYGSTFMGWFRQNPGKEREGVAVIYTGGGSTWYASSVKGRFTISQDNAKNTVYLQMNSLKPEDTAMYYCAARYGSGNVNYWGQGTQVTVSS
16 | binds | AS64160 (VHH, camel sdAb; crude E. coli supernatant) VHH: EVQLVESGGGSVQAGGSLRLSCAASVYTSSSYCMGWFRQAPGKEREGVAAMCFGGLVTHYADSVKGRFTISQDNAKNTVYLQMNSLKPEDTAMYYCAADFGRDKNYLRPLLPHAYNYWGQGTQVTVSS
17 | binds | AS63956 (VHH, camel sdAb; crude E. coli supernatant) VHH: QVHLVESGGGLVQAGGSLRLSCAASGFTYSNCCMRWYRQAPGKARELVSLINSSGGTYYADSVRGRFTISKDNAKNTLYLQMNSLKPEDTAMYYCAAYQAKYCSGPCAPPTDWGQGTQVTVSS
18 | binds | AS69500 (VHH, camel sdAb; crude E. coli supernatant) VHH: QVRLVESGGGSVQAGGSLRLSCAADRYTYSSACMGWFRQAPGKEREGVASIFTGTGGSTYYADSVKGRFTISQDNAKNTVYLQMNSLKPEDTAIYYCAARAFQVGYCYLRTDVYNYWGQGTQVTVSS
19 | binds | AS68355 (VHH, camel sdAb; crude E. coli supernatant) VHH: QMQLVESGGDSVQAGGSLRLSCAASGYTYSGVCMGWFRQAPGKEREGVAAIDSDGSTSYADSVKGRFTISKDNAKNTLYLQMNSLKPEDTAMYYCAAAIVGGFNAYCSGGYVLDFGAWGQGTQVTVSS
20 | binds | AS64006 (VHH, camel sdAb; crude E. coli supernatant) VHH: QVHLVESGGGSVQAGGSLRLSCEVSGYTGDTTYIGWFRQAPGKEREGVALIYTSGTSEYYADSVKGRFIISRDNAKNTVYLQMNSLKPEDTAMYYCGARSRTMMYWGQGTQVTVSS
21 | binds | AS63965 (VHH, camel sdAb; crude E. coli supernatant) VHH: QVQLVESGGGSVQAGGSLRLSCVASGYSSGSCRMGWYRQAPGKERELVSKVISDGTTVYADSVKGRFTLSQGNAKNTVYLQMSSLLPEDTAMYYCNAWCREYPGGILNNGWGQGTQVTVSS
22 | binds | AS75376 (VHH, camel sdAb; crude E. coli supernatant) VHH: QVQLKESGGGSVQAGGSLRLSCAASGYTYSSHSMGWFRQAPGKEREGVAVIYTGDGSTYYADSVKGRFTISQDNAKNTVYLQMNSLKPEDTAMYYCAADPNPDYMLPFRPSRRSWWGQGTQVTVSS
23 | binds | AS64300 (VHH, camel sdAb; crude E. coli supernatant) VHH: QVHLVESGGGSVQTGGSLRLSCAVSGDIYNLMSMAWFRRAPGKEREGVAYINTIIGNTYYTDSVKGRFTISRDNSKNTLYLQMNNLKPEDTAMYYCAAFNYGGAWYEERSYKYWGQGTQVTVSS
24 | binds | AS63993 (VHH, camel sdAb; crude E. coli supernatant) VHH: QVKLVESGGGLVQAGGSLRLSCTVSGFTFDDLVMAWFRQAPGKERQLVSLVATAGNSVYADSVKGRFTLSRDNAHSTAYLQMNGLKPEDTAMYYCAARTDSEHAFKFWGQGTQVTVSS
25 | binds | AS64071 (VHH, camel sdAb; crude E. coli supernatant) VHH: QVHLMESGGGSVQAGGSLRLSCVASGNTYRLNSMGWFRQAPGKEREGVAFIVMIRGTTYYGASVKGRFTISQDNAQTTVYLQMSSLKPEDTAMYYCAASTKDQFYVFNPIGYDSWGQGTQVTVSS
26 | binds | AS64228 (VHH, camel sdAb; crude E. coli supernatant) VHH: QVQLKESGGGSIQAGGSLRLSCAASGVSYNRCSMGWYRQAPGKGRELVSRIQPGGNTYYADSVKGRFTVSQDNAKNTVSLQMNSLKPEDTAMYYCNALCWRENVNYWGQGTQVTVSS

target: T1, extracellular domain of human DLL3 …; assay: SPR (Biacore), HCAb captured by anti-human Fc, human DLL3 as analyte, 1:1 fit
Text: The camel and humanized sdAb sequences were fused with human IgG1 hinge and Fc, resulting the chimeric and humanized HCAb sequences. The DNAs encoding these HCAbs were synthesized and inserted into pTT5 vector. HCAb expression plasmids were used to transfect HEK293 cells. Crude HCAb proteins secreted to the medium were subjected to SPR affinity measurement as follows: briefly, capturing antibody anti-human Fc pAb (GE healthcare) was immobilized on a Biacore™ CM5 chip to approximately 6,000 RU using EDC-activated amine coupling chemistry. HCAb of interest was captured for 300 seconds onto the sensorchip surface. Human DLL3 (AdipoGen, AG-40B-0151) was flowed over the sensorchip surface at a series of increasing concentrations. Association and dissociation phases were monitored. Captured antibody and antigen were removed between cycles using 10 mM Glycine-HCl, pH 2.0 buffer in order to ensure a fresh binding surface for the antigen. The resulting sensorgrams were fit globally using a 1:1 binding model in order to calculate on- and off-rates (ka and kd, respectively), as well as affinities (KD).

Row | Kd [nM] | koff [s⁻¹] | kon [M⁻¹ s⁻¹] | Binder
27 | 45 | 0.0015 | 32000 | AS64380VH7 HCAb (Fc fusion, not shown: a dimerising Fc or GST, humanized sdAb fused with human IgG1 hinge and Fc (humanized HCAb), crude HEK293 medium) EVQLVESGGGLVQPGGSLRLSCAASGNTYSSNYMGWFRQAPGKGREEVAVIYTRGGHTYYVDSVRGRFTISQDNAKNSVYLQMNSLRAEDTAMYYCAASSRHRLGLNNPRDYDYWGQGTLVTVSS
